# B1: mouse AIM: protein consisting of the amino acid sequence shown in SEQ ID NO: 5; recombinant, purified from HEK293T culture supernatant (protein)
# chain: MAPLFNLMLAILSIFVGSCFSESPTKVQLVGGAHRCEGRVEVEHNGQWGTVCDDGWDRRDVAVVCRELNCGAVIQTPRGASYQPPASEQRVLIQGVDCNGTEDTLAQCELNYYVFDCSHEEDAGAQCENPDSDLLFIPEDVRLVDGPGHCQGRVEVLHQSQWSTVCKAGWNLQVSKVVCRQLGCGRALLTYGSCNKNTQGKGPIWMGKMSCSGQEANLRSCLLSRLENNCTHGEDTWMECEDPFELKLVGGDTPCSGRLEVLHKGSWGSVCDDNWGEKEDQVVCKQLGCGKSLHPSPKTRKIYGPGAGRIWLDDVNCSGKEQSLEFCRHRLWGYHDCTHKEDVEVICTDFDV
# modifications: mouse
# notes: recombinant, purified from HEK293T culture supernatant
# B2: AIM: apoptosis inhibitor of macrophage, secretory protein with three SRCR domains; recombinant mouse and human AIM in Example 2, mouse AIM in Examples 3-16 (protein)
# chain: ESPTKVQLVGGAHRCEGRVEVEHNGQWGTVCDDGWDRRDVAVVCRELNCGAVIQTPRGASYQPPASEQRVLIQGVDCNGTEDTLAQCELNYYVFDCSHEEDAGAQCENPDSDLLFIPEDVRLVDGPGHCQGRVEVLHQSQWSTVCKAGWNLQVSKVVCRQLGCGRALLTYGSCNKNTQGKGPIWMGKMSCSGQEANLRSCLLSRLENNCTHGEDTWMECEDPFELKLVGGDTPCSGRLEVLHKGSWGSVCDDNWGEKEDQVVCKQLGCGKSLHPSPKTRKIYGPGAGRIWLDDVNCSGKEQSLEFCRHRLWGYHDCTHKEDVEVICTDFDV
# Columns and labels:
# AIM-/- mice = test: Intraperitoneal rAIM in AIM-/- mice given HFD; format: in vivo, mouse
# Experimental: While giving HFD to AIM^−/− mice for 15 weeks, mouse rAIM was intraperitoneally injected into the AIM^−/− mice for the last 9 weeks to examine whether the administration of rAIM inhibits the increase of the adipose tissue mass. That is, rAIM was intraperitoneally injected three times a week into the AIM^−/− mice ((150 μg/injection/mouse)×(three times/week)=(450 μg/mouse/week)) over the last 9 weeks, and the body weight, the weight of the visceral fat, and the weight of the subcutaneous fat were measured in the 15th week. The body weight, the weight of the visceral fat, and the weight of the subcutaneous fat were also measured in the AIM^−/− mice as the control to which BSA (bovine serum albumin) had been intraperitoneally administered in the same administration schedule.
# FIG. 30A, FIG. 30B, and FIG. 30C show the results (n=3) of measuring the body weight (Body) (g), the weight of the visceral adipose tissue (Visceral fat) (g), and the amount of the subcutaneous adipose tissue (Subcutaneous fat) (g) in the AIM/mice to which BSA was administered (BSA) and the AIM^−/− mice to which rAIM was administered (rAIM), respectively.
# Further, mRNA levels of FSP27, perilipin, and adipophilin were evaluated in each of the AIM^−/− mice to which BSA was administered and the AIM^−/− mice to which rAIM was administered. The mRNA levels were measured using RNA isolated from epididymal fat and using QPCR.
# FIG. 31 illustrates the mRNA levels (n=3) of FSP27, perilipin, and adipophilin evaluated in each of the AIM^−/− mice to which BSA was administered (BSA) and the AIM^−/− mice to which rAIM was administered (rAIM). It should be noted that values illustrated in FIG. 31 were normalized to GAPDH and represented as expressions relative to the results in the mice to which BSA had been injected.
# endogenous FAS = molecular target: T1, endogenous FAS (Mus musculus, UniProt P19096); test: Co-precipitation of endocytosed HA-tagged rAIM with endogenous FAS from adipose tissue lysates; format: binding; settings: HA-tagged rAIM injected into AIM-/- mice, adipose tissue lysate, anti-HA antibody, Western blotting for FAS
# T1 construct: from tissue; host or cells: epididymal adipose tissue of obese AIM-/- mice
# T1 sequence (P19096 whole entry): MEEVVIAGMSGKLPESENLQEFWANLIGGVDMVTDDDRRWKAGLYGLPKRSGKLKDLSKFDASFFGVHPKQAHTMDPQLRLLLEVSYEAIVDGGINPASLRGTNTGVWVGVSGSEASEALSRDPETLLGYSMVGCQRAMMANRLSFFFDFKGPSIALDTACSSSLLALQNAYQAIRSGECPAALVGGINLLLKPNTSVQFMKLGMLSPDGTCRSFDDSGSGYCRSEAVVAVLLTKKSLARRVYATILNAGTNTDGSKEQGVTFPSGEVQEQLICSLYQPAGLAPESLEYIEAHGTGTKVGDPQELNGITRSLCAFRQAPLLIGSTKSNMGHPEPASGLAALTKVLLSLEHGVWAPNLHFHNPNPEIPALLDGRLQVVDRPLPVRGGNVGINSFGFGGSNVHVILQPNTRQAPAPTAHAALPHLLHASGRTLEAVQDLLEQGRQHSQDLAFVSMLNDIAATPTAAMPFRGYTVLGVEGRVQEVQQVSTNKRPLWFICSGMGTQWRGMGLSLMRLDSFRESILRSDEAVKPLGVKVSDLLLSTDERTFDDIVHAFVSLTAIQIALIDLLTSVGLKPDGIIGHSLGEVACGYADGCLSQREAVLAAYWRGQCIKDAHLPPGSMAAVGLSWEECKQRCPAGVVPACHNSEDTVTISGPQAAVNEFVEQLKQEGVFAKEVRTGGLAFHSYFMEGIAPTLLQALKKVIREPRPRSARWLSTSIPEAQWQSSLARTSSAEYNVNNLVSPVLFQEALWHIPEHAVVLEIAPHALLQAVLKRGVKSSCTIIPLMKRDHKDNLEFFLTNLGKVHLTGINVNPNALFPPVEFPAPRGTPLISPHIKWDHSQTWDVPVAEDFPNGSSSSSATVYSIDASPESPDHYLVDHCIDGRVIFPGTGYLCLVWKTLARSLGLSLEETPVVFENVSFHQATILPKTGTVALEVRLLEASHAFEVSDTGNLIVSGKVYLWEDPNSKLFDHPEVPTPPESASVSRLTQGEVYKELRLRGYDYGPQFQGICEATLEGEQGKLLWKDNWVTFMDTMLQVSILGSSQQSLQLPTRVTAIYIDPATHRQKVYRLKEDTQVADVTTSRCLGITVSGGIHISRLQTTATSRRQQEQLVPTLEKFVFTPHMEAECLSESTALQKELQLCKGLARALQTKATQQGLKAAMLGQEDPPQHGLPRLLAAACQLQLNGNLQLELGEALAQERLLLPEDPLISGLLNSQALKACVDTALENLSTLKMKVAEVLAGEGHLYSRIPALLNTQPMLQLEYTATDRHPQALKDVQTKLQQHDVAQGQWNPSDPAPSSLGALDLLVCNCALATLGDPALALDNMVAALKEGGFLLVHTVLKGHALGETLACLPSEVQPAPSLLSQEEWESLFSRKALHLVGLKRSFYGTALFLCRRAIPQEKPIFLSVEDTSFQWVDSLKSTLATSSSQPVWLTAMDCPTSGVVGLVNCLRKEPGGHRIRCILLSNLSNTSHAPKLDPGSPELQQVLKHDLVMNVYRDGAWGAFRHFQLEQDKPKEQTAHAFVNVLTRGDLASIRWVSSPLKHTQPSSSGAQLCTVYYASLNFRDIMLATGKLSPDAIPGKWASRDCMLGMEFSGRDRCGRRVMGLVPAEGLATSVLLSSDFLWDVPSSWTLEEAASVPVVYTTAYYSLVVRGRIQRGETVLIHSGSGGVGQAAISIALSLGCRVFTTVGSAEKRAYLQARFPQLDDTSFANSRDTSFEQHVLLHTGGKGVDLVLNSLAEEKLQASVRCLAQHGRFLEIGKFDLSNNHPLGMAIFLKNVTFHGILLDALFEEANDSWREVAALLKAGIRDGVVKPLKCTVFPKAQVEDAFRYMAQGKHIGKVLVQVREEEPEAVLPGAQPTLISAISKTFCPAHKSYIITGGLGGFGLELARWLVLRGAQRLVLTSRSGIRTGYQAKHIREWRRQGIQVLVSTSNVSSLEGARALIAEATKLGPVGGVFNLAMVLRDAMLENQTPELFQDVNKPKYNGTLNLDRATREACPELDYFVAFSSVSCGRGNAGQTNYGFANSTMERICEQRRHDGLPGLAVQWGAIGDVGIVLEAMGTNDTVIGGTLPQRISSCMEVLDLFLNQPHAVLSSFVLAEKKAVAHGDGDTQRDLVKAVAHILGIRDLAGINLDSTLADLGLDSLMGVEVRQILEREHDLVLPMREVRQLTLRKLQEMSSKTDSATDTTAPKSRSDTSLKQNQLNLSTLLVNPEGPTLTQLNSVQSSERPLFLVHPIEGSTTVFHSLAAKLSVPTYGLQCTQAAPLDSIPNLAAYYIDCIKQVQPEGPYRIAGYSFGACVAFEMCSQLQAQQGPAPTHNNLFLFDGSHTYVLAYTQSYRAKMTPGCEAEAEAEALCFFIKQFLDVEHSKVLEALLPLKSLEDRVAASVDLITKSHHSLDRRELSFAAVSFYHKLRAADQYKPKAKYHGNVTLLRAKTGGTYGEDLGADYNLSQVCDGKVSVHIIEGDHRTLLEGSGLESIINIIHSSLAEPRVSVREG
# Experimental: Further, the endocytosed rAIM was precipitated using lysates derived from those adipose tissues to examine whether endogenous FAS was co-precipitated or not. That is, the presence of FAS in the precipitate was analyzed by Western blotting using HA-tagged rAIM and an anti-HA antibody.
# It was confirmed that AIM was bound to FAS both in vivo and in vitro. That is, mouse rAIM tagged with HA in a total amount of 100 μg was directly injected in several sites in the epididymal adipose tissue in the obese AIM^−/− mouse. At 3 hours after the injection, the epididymal adipose tissues were collected. Then, endocytosed rAIM was precipitated from a lysate of the adipose tissues using an anti-HA antibody. Then, it was analyzed by immunoblotting (WB) whether FAS was present in the resulting precipitate.
# CD36 = molecular target: T2, CD36 (Mus musculus, UniProt Q08857); test: Internalization of AIM into 3T3-L1 adipocytes with or without CD36 neutralizing antibody; format: cell-based
# T2 construct: endogenous in cells; host or cells: differentiated 3T3-L1 adipocytes
# T2 sequence (Q08857 whole entry): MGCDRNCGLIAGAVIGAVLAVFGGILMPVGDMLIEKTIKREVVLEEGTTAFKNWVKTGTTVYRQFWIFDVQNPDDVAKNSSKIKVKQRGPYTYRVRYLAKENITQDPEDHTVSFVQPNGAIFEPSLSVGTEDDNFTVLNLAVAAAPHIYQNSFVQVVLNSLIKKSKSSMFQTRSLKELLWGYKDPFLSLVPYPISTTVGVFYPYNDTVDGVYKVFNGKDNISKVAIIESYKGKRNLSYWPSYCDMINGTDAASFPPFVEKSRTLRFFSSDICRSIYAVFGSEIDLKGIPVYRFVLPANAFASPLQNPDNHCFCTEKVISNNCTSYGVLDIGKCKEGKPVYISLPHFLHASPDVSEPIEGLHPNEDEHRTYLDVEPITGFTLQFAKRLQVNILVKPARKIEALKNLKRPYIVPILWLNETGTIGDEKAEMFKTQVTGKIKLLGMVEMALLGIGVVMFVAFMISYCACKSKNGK
# Experimental: Further, in order to confirm that AIM is internalized via CD36, a neutralizing antibody which inhibited the binding of a ligand to CD36 was simultaneously loaded when the 3T3-L1 adipocyte differentiated by the above-mentioned differentiation induction was loaded with AIM. Subsequently, the cultured 3T3-L1 adipocytes were collected, and stained using an anti-AIM antibody. The 3T3-L1 adipocytes loaded with AIM alone without loading the neutralizing antibody against CD36 were cultured and stained in the same manner as described above.
# 3T3-L1 preadipocytes = test: Differentiation of 3T3-L1 preadipocytes into mature adipocytes, oil-red-o staining; format: cell-based, mouse; settings: AIM concentration reduced to 1 μg/mL and 0.1 μg/mL; data not shown
# 3T3-L1 cells = test: Expression of genes associated with adipocyte differentiation, quantitative RT-PCR; format: cell-based; settings: mouse AIM
# Experimental: The cells cultured in the above-mentioned five schedules (a) to (e) in Examples 2 and 3 above were collected on the 10th day (day 12) after the initiation of the stimuli for differentiation induction, and the expression of genes associated with adipose differentiation was analyzed using quantitative RT-PCR (QPCR).
# FAS domains = test: Co-immunoprecipitation of FLAG-tagged FAS regions with HA-tagged AIM in HEK293T cells; format: binding; settings: HA-tagged mouse AIM
# From the text: Further, it was attempted to map a binding region of FAS to AIM. FAS has the following distinct seven functional domains, i.e., ketoacyl synthase (KS), malonyl/acetyl transferase (MAT), dehydrase (DH), enoylreductase (ER), ketoreductase (KR), acyl carrier protein (ACP), and thioesterase (TE), as illustrated in FIG. 34A. There is a central core (CC) between the DH domain and the ER domain. It is believed that the central core has no known catalytic function and plays a structural role in stabilization of the dimer. FIG. 34A illustrates FAS dimerized through head-to-tail interaction and major functions of its respective regions.
# Thus, an association of each region in FAS tagged with FLAG with AIM tagged with HA was examined by a co-precipitation study. That is, each domain from FAS tagged with FLAG at the N terminus was expressed in HEK293T cells in which mouse AIM tagged with HA was stably expressed. Then, the association of each region with AIM was examined by a co-immunoprecipitation study using an anti-FLAG antibody and an anti-HA antibody. However, AIM was not bound to an N terminal region including the KS and MAT domains (see FIG. 34A) involved in initial acyl chain assembly (i.e., condensation of acetyl group and malonyl group to 3-ketobutyryl-ACP associated with release of carbon dioxide). Therefore, it was thought that AIM affected elongation of a fatty acid chain (which involves ER and DH) and the release of synthesized palmitate (which depends on TE). Over-expression of ER or KR led to death of many cells. This caused the reduction of the signals in WB using the cell lysates of them [lower panel in FIG. 34B, lanes: ER and KR).
# [1] = epididymal fat, QPCR, rAIM ip versus BSA
# [2] = mouse rAIM ip 150 μg/injection/mouse, three times/week, last 9 of 15 weeks HFD, versus BSA
# [3] = schedule (d): day 2 to day 4, cells collected day 12
molecule,measurement,setting,value
B1,mRNA level of FSP27,AIM-/- mice; [1],low
same,mRNA level of adipophilin,AIM-/- mice; [1],low
same,mRNA level of perilipin,AIM-/- mice; [1],low
same,body weight gain,AIM-/- mice; [2],remarkably small
same,increase in weight of the subcutaneous fat,AIM-/- mice; [2],remarkably small
same,increase in weight of the visceral fat,AIM-/- mice; [2],remarkably small
same,co-precipitation of endocytosed rAIM and endogenous FAS,endogenous FAS,co-precipitated
B2,internalization of AIM into the cells,CD36; neutralizing antibody against CD36 loaded simultaneously,not observed
same,internalization of AIM into the cells,CD36; neutralizing antibody against CD36 not loaded,had been internalized into the cells
same,differentiation inhibitory effect by AIM,3T3-L1 preadipocytes,reduced
same,expression of the C/EBPα gene,3T3-L1 cells; schedule (b): day 2 to day 12,almost completely inhibited
same,expression of the CD36 gene,3T3-L1 cells; schedule (b): day 2 to day 12,almost completely inhibited
same,expression of the FAS gene,3T3-L1 cells; schedule (b): day 2 to day 12,slightly increased
same,expression of the Glut4 gene,3T3-L1 cells; schedule (b): day 2 to day 12,almost completely inhibited
same,expression of the PPARγ gene,3T3-L1 cells; schedule (b): day 2 to day 12,almost completely inhibited
same,gene expression patterns compared with no AIM,3T3-L1 cells; schedule (c): day -2 to day 2,not changed
same,expression of the FAS gene,3T3-L1 cells; schedule (d): day 2 to day 4,slightly increased
same,expression of the C/EBPα gene,3T3-L1 cells; [3],almost completely inhibited
same,expression of the CD36 gene,3T3-L1 cells; [3],almost completely inhibited
same,expression of the Glut4 gene,3T3-L1 cells; [3],almost completely inhibited
same,expression of the PPARγ gene,3T3-L1 cells; [3],almost completely inhibited
same,gene expression patterns compared with no AIM,3T3-L1 cells; schedule (e): day 6 to day 12,not changed
same,binding to the CC (central core) domain of FAS,FAS domains; FLAG-tagged domain,specifically bound
same,binding to the DH domain of FAS,FAS domains; FLAG-tagged domain,specifically bound
same,binding to the ER domain of FAS,FAS domains; FLAG-tagged domain,specifically bound
same,binding to the TE domain of FAS,FAS domains; FLAG-tagged domain,specifically bound
same,binding to the N terminal region of FAS including the KS and MAT domains,FAS domains; FLAG-tagged region,not bound
